What was measured:
[1] = molecular target: GST-JNK1, P45983
[2] = molecular target: GST-p38 MAP kinase (wild-type, TGY), Q16539
[3] = molecular target: mutated GST-JNK1 (Ala^183, Phe^185), P45983
[4] = molecular target: T1, GST-MKK4, P45985
T1 chain: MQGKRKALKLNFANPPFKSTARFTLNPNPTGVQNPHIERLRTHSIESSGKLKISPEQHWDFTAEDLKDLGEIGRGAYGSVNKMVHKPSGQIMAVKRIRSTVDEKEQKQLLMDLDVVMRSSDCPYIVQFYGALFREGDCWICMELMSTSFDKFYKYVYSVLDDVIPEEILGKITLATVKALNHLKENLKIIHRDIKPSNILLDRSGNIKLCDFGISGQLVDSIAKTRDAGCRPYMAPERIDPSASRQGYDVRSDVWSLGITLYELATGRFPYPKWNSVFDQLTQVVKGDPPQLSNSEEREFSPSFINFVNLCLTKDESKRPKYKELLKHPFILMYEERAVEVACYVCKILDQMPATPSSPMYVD

[5] = molecular target: T2, mutated ATF2 (Ala^69.71), P15336
T2 chain: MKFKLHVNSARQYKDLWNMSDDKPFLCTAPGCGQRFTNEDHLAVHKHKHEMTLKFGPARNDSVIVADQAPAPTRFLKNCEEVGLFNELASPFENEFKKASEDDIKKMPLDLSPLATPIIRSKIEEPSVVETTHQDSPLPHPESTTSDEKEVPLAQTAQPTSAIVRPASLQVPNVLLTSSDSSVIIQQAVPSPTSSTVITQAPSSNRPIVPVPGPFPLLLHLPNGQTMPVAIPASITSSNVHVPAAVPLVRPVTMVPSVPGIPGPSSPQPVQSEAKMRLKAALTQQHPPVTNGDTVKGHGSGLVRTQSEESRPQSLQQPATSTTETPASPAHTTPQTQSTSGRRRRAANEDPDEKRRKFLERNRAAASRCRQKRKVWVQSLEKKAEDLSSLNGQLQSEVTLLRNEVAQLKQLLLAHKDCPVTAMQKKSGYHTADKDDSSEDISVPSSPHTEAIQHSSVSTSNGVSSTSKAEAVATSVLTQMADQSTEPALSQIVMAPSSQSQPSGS

[6] = molecular target: T3, GST-ATF2 fusion protein (residues 1-505), P15336
T3 chain: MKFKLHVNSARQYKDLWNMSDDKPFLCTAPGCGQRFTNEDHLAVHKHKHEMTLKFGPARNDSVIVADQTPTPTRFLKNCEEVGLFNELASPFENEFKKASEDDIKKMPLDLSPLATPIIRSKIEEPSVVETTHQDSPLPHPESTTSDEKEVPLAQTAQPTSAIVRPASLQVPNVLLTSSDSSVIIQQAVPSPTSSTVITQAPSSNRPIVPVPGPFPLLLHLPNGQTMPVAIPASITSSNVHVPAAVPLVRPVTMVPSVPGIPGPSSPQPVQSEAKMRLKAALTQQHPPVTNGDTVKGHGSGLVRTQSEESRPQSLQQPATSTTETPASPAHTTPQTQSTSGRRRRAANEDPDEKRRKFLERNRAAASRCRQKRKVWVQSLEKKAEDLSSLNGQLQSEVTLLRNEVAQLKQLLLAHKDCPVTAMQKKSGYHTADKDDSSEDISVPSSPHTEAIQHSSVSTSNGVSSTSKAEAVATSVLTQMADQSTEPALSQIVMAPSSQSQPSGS

[7] = molecular target: T4, GST-ATF2 fusion protein (residues 1-349), P15336
T4 chain: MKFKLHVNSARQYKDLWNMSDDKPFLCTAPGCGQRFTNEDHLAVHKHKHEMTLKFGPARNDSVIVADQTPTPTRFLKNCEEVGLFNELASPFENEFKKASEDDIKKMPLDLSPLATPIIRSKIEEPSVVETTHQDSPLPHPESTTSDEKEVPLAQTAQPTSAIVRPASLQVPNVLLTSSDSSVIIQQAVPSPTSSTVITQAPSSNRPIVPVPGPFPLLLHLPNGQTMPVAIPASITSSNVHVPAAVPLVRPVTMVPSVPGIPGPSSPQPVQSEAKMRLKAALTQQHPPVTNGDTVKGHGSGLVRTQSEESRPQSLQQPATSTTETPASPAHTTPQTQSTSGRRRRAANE

[8] = molecular target: T5, GST-ATF2 fusion protein (residues 40-109), P15336
T5 chain: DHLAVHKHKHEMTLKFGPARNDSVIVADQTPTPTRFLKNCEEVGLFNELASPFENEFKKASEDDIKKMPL

[9] = molecular target: GST-ATF2 fusion protein (residues 1-109, activation domain) [GST: P08515]
[10] = molecular target: T6, GST-ATF2 fusion protein (residues 20-109), P15336
T6 chain: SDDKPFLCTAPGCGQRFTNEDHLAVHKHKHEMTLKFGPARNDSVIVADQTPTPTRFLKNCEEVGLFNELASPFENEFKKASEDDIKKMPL

[11] = molecular target: T7, GST-ATF2 fusion protein (residues 60-109), P15336
T7 chain: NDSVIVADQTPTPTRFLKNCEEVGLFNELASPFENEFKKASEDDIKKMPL

[12] = molecular target: GST-ERK2 [GST: P08515]
GST-ERK2 [GST: P08515], sequence (P08515 whole entry, looked up): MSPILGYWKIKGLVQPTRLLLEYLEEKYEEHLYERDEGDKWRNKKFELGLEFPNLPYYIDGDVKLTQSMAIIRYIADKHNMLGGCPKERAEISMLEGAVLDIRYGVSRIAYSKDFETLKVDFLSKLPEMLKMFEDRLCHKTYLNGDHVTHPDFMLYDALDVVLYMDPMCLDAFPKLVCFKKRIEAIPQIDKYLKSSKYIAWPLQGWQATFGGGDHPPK

GST-p38 MAP kinase (wild-type, TGY), Q16539, sequence (Q16539 whole entry): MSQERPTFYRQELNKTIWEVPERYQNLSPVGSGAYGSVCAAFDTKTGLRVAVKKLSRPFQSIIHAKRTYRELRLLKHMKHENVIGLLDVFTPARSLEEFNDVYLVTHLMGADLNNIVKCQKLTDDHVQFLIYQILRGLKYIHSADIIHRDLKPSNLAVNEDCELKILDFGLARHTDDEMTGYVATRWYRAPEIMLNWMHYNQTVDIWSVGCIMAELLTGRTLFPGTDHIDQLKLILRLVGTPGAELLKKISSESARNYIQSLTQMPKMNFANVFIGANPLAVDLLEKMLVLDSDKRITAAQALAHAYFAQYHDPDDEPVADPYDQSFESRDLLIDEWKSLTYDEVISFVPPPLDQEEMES

B1: GST-MKK4 (protein)
chain: MQGKRKALKLNFANPPFKSTARFTLNPNPTGVQNPHIERLRTHSIESSGKLKISPEQHWDFTAEDLKDLGEIGRGAYGSVNKMVHKPSGQIMAVKRIRSTVDEKEQKQLLMDLDVVMRSSDCPYIVQFYGALFREGDCWICMELMSTSFDKFYKYVYSVLDDVIPEEILGKITLATVKALNHLKENLKIIHRDIKPSNILLDRSGNIKLCDFGISGQLVDSIAKTRDAGCRPYMAPERIDPSASRQGYDVRSDVWSLGITLYELATGRFPYPKWNSVFDQLTQVVKGDPPQLSNSEEREFSPSFINFVNLCLTKDESKRPKYKELLKHPFILMYEERAVEVACYVCKILDQMPATPSSPMYVD
[1]
  phosphorylation of ATF2 in a coupled kinase assay (activation of JNK1): ATF2 was phosphorylated in the presence of MKK4 and wild-type JNK1
  phosphorylation of the substrate protein (in vitro kinase assay, [γ-32P]ATP): JNK1 and p38 were phosphorylated
[2]
  phosphorylation of the substrate protein (in vitro kinase assay, [γ-32P]ATP): JNK1 and p38 were phosphorylated
[3]
  phosphorylation of ATF2 in a coupled kinase assay (activation of JNK1): MKK4 incubated with wild-type JNK1, but not mutated JNK1, resulted in increased phosphorylation of ATF2

B2: GST-JNK1 (protein)
chain: MSRSKRDNNFYSVEIGDSTFTVLKRYQNLKPIGSGAQGIVCAAYDAILERNVAIKKLSRPFQNQTHAKRAYRELVLMKCVNHKNIIGLLNVFTPQKSLEEFQDVYIVMELMDANLCQVIQMELDHERMSYLLYQMLCGIKHLHSAGIIHRDLKPSNIVVKSDCTLKILDFGLARTAGTSFMMTPYVVTRYYRAPEVILGMGYKENVDLWSVGCIMGEMVCHKILFPGRDYIDQWNKVIEQLGTPCPEFMKKLQPTVRTYVENRPKYAGYSFEKLFPDVLFPADSEHNKLKASQARDLLSKMLVIDASKRISVDEALQHPYINVWYDPSEAEAPPPKIPDKQLDEREHTIEEWKELIYKEVMDLEERTKNGVIRGQPSPLAQVQQ
[4]
  phosphorylation of MKK4 (in vitro kinase assay, [γ-32P]ATP): as was MKK4 incubated with JNK1 and p38

B3: JNK1 from UV-irradiated cells (protein)
chain: MSRSKRDNNFYSVEIGDSTFTVLKRYQNLKPIGSGAQGIVCAAYDAILERNVAIKKLSRPFQNQTHAKRAYRELVLMKCVNHKNIIGLLNVFTPQKSLEEFQDVYIVMELMDANLCQVIQMELDHERMSYLLYQMLCGIKHLHSAGIIHRDLKPSNIVVKSDCTLKILDFGLARTAGTSFMMTPYVVTRYYRAPEVILGMGYKENVDLWSVGCIMGEMVCHKILFPGRDYIDQWNKVIEQLGTPCPEFMKKLQPTVRTYVENRPKYAGYSFEKLFPDVLFPADSEHNKLKASQARDLLSKMLVIDASKRISVDEALQHPYINVWYDPSEAEAPPPKIPDKQLDEREHTIEEWKELIYKEVMDLEERTKNGVIRGQPSPLAQVQQ
[5]
  phosphorylation of ATF2 by JNK1 (phosphopeptide mapping and mutational analysis): Phosphorylation of mutated ATF2 was not observed
[6]
  in-gel protein kinase assay with GST-ATF2 (residues 1-505) polymerized in the gel: 46 kD and 55 kD protein kinases that phosphorylate ATF2 in extracts prepared from UV-irradiated cells. The 46 kD and 55 kD protein kinases were identified as JNK1 and JNK2, respectively

B4: 55 kD JNK2 protein kinase (protein)
chain: MSDSKCDSQFYSVQVADSTFTVLKRYQQLKPIGSGAQGIVCAAFDTVLGINVAVKKLSRPFQNQTHAKRAYRELVLLKCVNHKNIISLLNVFTPQKTLEEFQDVYLVMELMDANLCQVIHMELDHERMSYLLYQMLCGIKHLHSAGIIHRDLKPSNIVVKSDCTLKILDFGLARTACTNFMMTPYVVTRYYRAPEVILGMGYKENVDIWSVGCIMGELVKGCVIFQGTDHIDQWNKVIEQLGTPSAEFMKKLQPTVRNYVENRPKYPGIKFEELFPDWIFPSESERDKIKTSQARDLLSKMLVIDPDKRISVDEALRHPYITVWYDPAEAEAPPPQIYDAQLEEREHAIEEWKELIYKEVMDWEERSKNGVVKDQPSDAAVSSNATPSQSSSINDISSMSTEQTLASDTDSSLDASTGPLEGCR
[6]
  in-gel protein kinase assay with GST-ATF2 (residues 1-505) polymerized in the gel: 46 kD and 55 kD protein kinases that phosphorylate ATF2 in extracts prepared from UV-irradiated cells. The 46 kD and 55 kD protein kinases were identified as JNK1 and JNK2, respectively

B5: Flag epitope-tagged JNK1 (protein)
chain: SRSKRDNNFYSVEIGDSTFTVLKRYQNLKPIGSGAQGIVCAAYDAILERNVAIKKLSRPFQNQTHAKRAYRELVLMKCVNHKNIIGLLNVFTPQKSLEEFQDVYIVMELMDANLCQVIQMELDHERMSYLLYQMLCGIKHLHSAGIIHRDLKPSNIVVKSDCTLKILDFGLARTAGTSFMMTPYVVTRYYRAPEVILGMGYKENVDLWSVGCIMGEMVCHKILFPGRDYIDQWNKVIEQLGTPCPEFMKKLQPTVRTYVENRPKYAGYSFEKLFPDVLFPADSEHNKLKASQARDLLSKMLVIDASKRISVDEALQHPYINVWYDPSEAEAPPPKIPDKQLDEREHTIEEWKELIYKEVMDLEERTKNGVIRGQPSPLAQVQQ
[7]
  phosphorylation of the GST-ATF2 fusion protein (immunocomplex kinase assay): JNK1 phosphorylates GST-ATF2 fusion proteins containing residues 1-505, 1-349, 1-109, 20-109, and 40-109, but not 60-109
[8]
  phosphorylation of the GST-ATF2 fusion protein (immunocomplex kinase assay): JNK1 phosphorylates GST-ATF2 fusion proteins containing residues 1-505, 1-349, 1-109, 20-109, and 40-109, but not 60-109
[9]
  phosphorylation of GST-ATF2 (residues 1 to 109) (immunocomplex kinase assay, autoradiography): JNK1-transfected cells, but not mock-transfected cells, phosphorylated ATF2. JNK1 phosphorylation of ATF2 was greater in cells exposed to UV radiation
  phosphorylation of the GST-ATF2 fusion protein (immunocomplex kinase assay): JNK1 phosphorylates GST-ATF2 fusion proteins containing residues 1-505, 1-349, 1-109, 20-109, and 40-109, but not 60-109
[10]
  phosphorylation of the GST-ATF2 fusion protein (immunocomplex kinase assay): JNK1 phosphorylates GST-ATF2 fusion proteins containing residues 1-505, 1-349, 1-109, 20-109, and 40-109, but not 60-109
[6]
  phosphorylation of the GST-ATF2 fusion protein (immunocomplex kinase assay): JNK1 phosphorylates GST-ATF2 fusion proteins containing residues 1-505, 1-349, 1-109, 20-109, and 40-109, but not 60-109
[11]
  phosphorylation of the GST-ATF2 fusion protein (immunocomplex kinase assay): JNK1 phosphorylates GST-ATF2 fusion proteins containing residues 1-505, 1-349, 1-109, 20-109, and 40-109, but not 60-109

B6: MKK6 (protein)
chain: MSQSKGKKRNPGLKIPKEAFEQPQTSSTPPRDLDSKACISIGNQNFEVKADDLEPIMELGRGAYGVVEKMRHVPSGQIMAVKRIRATVNSQEQKRLLMDLDISMRTVDCPFTVTFYGALFREGDVWICMELMDTSLDKFYKQVIDKGQTIPEDILGKIAVSIVKALEHLHSKLSVIHRDVKPSNVLINALGQVKMCDFGISGYLVDSVAKTIDAGCKPYMAPERINPELNQKGYSVKSDIWSLGITMIELAILRFPYDSWGTPFQQLKQVVEEPSPQLPADKFSAEFVDFTSQCLKKNSKERPTYPELMQHPFFTLHESKGTDVASFVKLILGD
[1]
  phosphorylation of the substrate protein (in vitro kinase assay): shown to phosphorylate p38 MAP kinase on Thr^180 and Tyr^182, but not JNK1 or ERK2
[2]
  phosphorylation of the substrate protein (in vitro kinase assay): shown to phosphorylate p38 MAP kinase on Thr^180 and Tyr^182, but not JNK1 or ERK2
  specific activity relative to MKK3: The specific activity of MKK6 was approximately 300-fold greater than that of MKK3
[12]
  phosphorylation of the substrate protein (in vitro kinase assay): shown to phosphorylate p38 MAP kinase on Thr^180 and Tyr^182, but not JNK1 or ERK2

— patent US20050272077
